{
  "source": "the nanobody polyreactivity screen of Harvey et al. (2022)",
  "data": [
    {"test": "yeast display, Sf9 membrane polyspecificity reagent, FACS + sequencing; frameworks hold sequencing errors", "in_short": "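Galactose induction of a Saccharomyces cerevisiae BJ5465 synthetic nanobody display library ran 36–48 hours. The cells were then stained for 1 hour at 4 °C with 10% biotinylated, detergent-solubilized Sf9 membrane reagent, pulled down on streptavidin microbeads and FACS-sorted into low and high (top ~1%) gates on expression and reagent-binding fluorescence. Labels for polyreactivity follow the gate of origin.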", "values": [
      {"sequence": "QVQLVESGGGLVQAGGSLRLTCAASGSIFRVYAMGWYRQAPGKERELVAVISIAGRTNYADSVKGRFTISRDNAKNTVYLQMNSLKAEDTAVYYCNAGGVGVATGYDYWGQGTQVTVSS", "polyreactivity (PSR sort gate)": "low polyreactivity"},
      {"sequence": "QVQLVESGGGLVQAGGSLRLTCAASGSIFQPNMGWNRHAPGKERELVASITTGTTKYADSVKGRFTISRDNAKNTVYLQMNSLKPEDTAVYYCAADLQATVYLIFGYWGQGTQVTVSS", "polyreactivity (PSR sort gate)": "low polyreactivity"},
      {"sequence": "QVQLVESGGGLVQAGGSLRLSCAASGFSYRYYAMGWYRQAPGKERELVAAISSRGGSTYYADSVKGRFTISRDNATNTVYLQMNSLKPEDTAVYYCAADHGDPGGYDYWGQGTQVTVSS", "polyreactivity (PSR sort gate)": "high polyreactivity"},
      {"sequence": "QVQLVESGGGLVQAGGSLRLSCAASGSIFARYAMGWYRQAPGKERELVAAISGSGASTYYADSVKGRFTISRDNAKNTVFLQMNSLKPEDTAVYYCARPFLRRPTYRFESGYGYWGQGTQVTVSS", "polyreactivity (PSR sort gate)": "high polyreactivity"},
      {"sequence": "QVQLVESGGGLVQAGGSLRLSCAASGYIFSGYAMGWYRQAPGKERELVAAISSSGGRTYYADSVKGRFTISRDNAKNTVYLQMNSLKPEDTAVYYCATVPRKTPGNAELDYWGQGTQVTVSS", "polyreactivity (PSR sort gate)": "high polyreactivity"},
      {"sequence": "QVELVESGGGLVQAGGSLRLSCAASGFIFYRYTMGWYRQAPGKEREVVAAISRRGGSTYYADSVKGRFTISRDNAKNTVYLQLNSLKPEDTAGYYCAARLGGYPRQGRYDYWGQGTQVTVSS", "polyreactivity (PSR sort gate)": "high polyreactivity"},
      {"sequence": "QVQLVESGGGLVQAGGSLRLSCAASGRTFGVNTMGWYRQAPGKERELVASISTSGGSTYADSVKGRFTISRDNAKNTVYLQMNSLKPEDTAVYYCAKDTDAVYDEYDSWGQGTQVTVSS", "polyreactivity (PSR sort gate)": "low polyreactivity"},
      {"sequence": "QVQLVESGGGLVQAGGSLRLSCAASGSIFFWYTMGWYRQAPGKERELVATITGSGSSTTYADSVKGRFTISRDNAKNTVYLQMNSLKPEDTAVYYCAAADIIDHSFPYDYWGQGTQVTVSS", "polyreactivity (PSR sort gate)": "low polyreactivity"},
      {"sequence": "QVQLVESGGGLVQAGGSLRLSCAASGRIFDLYAMRWYRQAPGKESELVAAISIRGGSTYYADSVKGRFTISRDNAKNTVYLQMNSLKPEDTAVYYCAAEGPWLSDEYDYWGQGTQVTVSS", "polyreactivity (PSR sort gate)": "low polyreactivity"},
      {"sequence": "QDKLVESGGGLVQAGASLRLTCAASGLIIYRNAMGWYIQAPGKERELVATISRRGGRTYYADSVKGRFTISRDNAKNNVYLQMNSLKPEDTAVYYCIADDYRSRGGYDSWGQGTQVTVSS", "polyreactivity (PSR sort gate)": "high polyreactivity"},
      {"sequence": "QVQLVESGGGLVQAGGSLRLSCAASGFTIAKYAMGWYRQAPGKERELVAAISSSGGRTYYADSVKGRFTISRDNAKNTVYLQMNSLKPEDTAVYYCAADFSGPFDYWGQGTQVTVSS", "polyreactivity (PSR sort gate)": "high polyreactivity"},
      {"sequence": "QVQLVESGGGLVQAGGSLRLSCAASGFTFISNAMGWYRKAPGKERELVAAISSSGGRTYYADSVKGRFTISRDNAKNTVYLQMNSLKPEDTAVYYCNADRSLLYSRKIEYDYWGQGTQVTVSS", "polyreactivity (PSR sort gate)": "low polyreactivity"},
      {"sequence": "QDQLVESRGGLVQAGGSLRVSCAASGLSFGYYAMGWYRQATGKERELVAAISSSGVNTYYADSVKGRFTISRDNPKNTVYLQMNSLIPEDTAVYYCNTVPKPWYSWKYAYDYWGQGTQVTVSS", "polyreactivity (PSR sort gate)": "high polyreactivity"},
      {"sequence": "QVQLVESGGGLVQAGGSLRLSCAASGFTFGNAMGWYRQAPGKERELVAAITVNGGTTNYADSVKGRFTISRDNAKNTVYLQMNSLKPEDTAVYYCNVDTSYGAAGDYWGQGTQVTVSS", "polyreactivity (PSR sort gate)": "low polyreactivity"},
      {"sequence": "QVQLVESGGGLVQAGGSLRLSGAASGSIFPGYAMGWYRQPPGKERELVATITWSGGSTYYADSVKGRFTISRDNAKNTVYLQMNSLKPEDSAVYYCAAERSWYTGFARDYDYWGQGTQVTVSS", "polyreactivity (PSR sort gate)": "low polyreactivity"},
      {"sequence": "QVQRVESGGGLVQAGGSLRLRCAASGFIFWLYAMGWYRQAPAKERELVAAISNGGSTNYADSVKGRFTISRDNAKNTVYLQMNSLKPEDTAVYYCAAKFPRRYYWYDYWGQGTQVTVSS", "polyreactivity (PSR sort gate)": "high polyreactivity"},
      {"sequence": "QVQLVESGGGLVQAGGSLRLSCAASGRTFPFYAMGWYRQAPGKEREFVAAITASGDSTYYADSVKGRFTISRDNAKNTVYLQMNSLKPEDTAVYYCAADLPVWYVTRYDYWGQGTQVTVSS", "polyreactivity (PSR sort gate)": "low polyreactivity"},
      {"sequence": "QVQLVESGGGLVQAGGSLRLSCAGSGFTFIRYAMGWYRQAPGKERELVATITRRTGSTYYADSVKGRFTISRDNAKNTVYLQMYSLKPEDTAVYDCAGELYPSWSHTVFHGYNYWGQGTQVTVSS", "polyreactivity (PSR sort gate)": "high polyreactivity"},
      {"sequence": "QVQLVESGGGLVQAGGSLRLSCAASGRTFYWNTMGWYRQAPGKERELVAAINYSGGSTYYADSVKGRFTISRDNAKNTVYLQMNSLKPEDTAVYYCAAYFHGYKSQHRARSEYNYWGQGTQVTVSS", "polyreactivity (PSR sort gate)": "high polyreactivity"},
      {"sequence": "QVQLVESGGGLVQAGGSLRLSCAASGRTFLGYAMGWYRQAPGKERELVAAITWRGGITYYADSVKGRFTISRDNAKNTVYLQMNSLKPEDTAVYYCARDYGQYGWYRYGRTFDNWGQGTQVTVSS", "polyreactivity (PSR sort gate)": "high polyreactivity"},
      {"sequence": "QVQLVESGGGLVQAGGSLRLSCAASGSILGYYAMGWYRQAPGKERELVAAITASGGSTYYADSVKGRFTISRDNAKNTVYLQMNSLKPEDTAVYYCAAQYYATYGYWGQGTQVTVSS", "polyreactivity (PSR sort gate)": "low polyreactivity"},
      {"sequence": "QVQLVESGGGLVQAGGSLRLSCAASGYIFLTNAMGWYRQAPGKERELVAAISVSGGRTYYADSVKGRFTISRDNAKNTVYLQMNSLKPEDTAVYYCNTLLTYGYDYWGQGTQVTVSS", "polyreactivity (PSR sort gate)": "low polyreactivity"},
      {"sequence": "QVHLVESGGGLVQAGGSLRLSCAASGIIFYRYAMGWYRQAPGKESELVAAITRRTASTYYADSVKGRFTLSRDNAKNTVYLPLNSLKPEDSAVYYCSAYSPYSHIVDNFDYWGQGTQVTVSS", "polyreactivity (PSR sort gate)": "low polyreactivity"},
      {"sequence": "QVQLVESGGGLVQAGGSLRLSCAASGFIFTPYAMGWYRQAPGKEREFVATITWSGGSTNYADSVKGRFTISRDNAKNTVYLQMNSLKPEDTAVYYCNADTWSPNDYWGQGTQVTVSS", "polyreactivity (PSR sort gate)": "low polyreactivity"},
      {"sequence": "QVHLVESGGGLVQAGGSLRLSCAASGSIFKYYAMGWYRQAPGKETELVAAISSGGTTNYADSVKGRFTISRDNAKNTVYFQMNSLKPEDTEVYYCAAYSTYFRRRKWGYDYWGQGTQVTVSS", "polyreactivity (PSR sort gate)": "high polyreactivity"},
      {"sequence": "QVQLVESGGGVVQAGGRLRLSCAASGFTFGSNDMGWYRQAPGKETELVAAIDGSGDTYYADSVKGRFTISRDNAKNTVDLQMNSLKPEDTAVYYCAADVIYWFSGEYDYWGQGTQVTVSS", "polyreactivity (PSR sort gate)": "low polyreactivity"},
      {"sequence": "QVQLVESGGGLVQAGGSLRLSCAASGRIFDRNAMGWYRQAPGKERELVATISSGDTTDYADSVKGRFTISRDNAKNTVYLQMNSLKPEDTAVYYITIYNYWGQGTQVTVSS", "polyreactivity (PSR sort gate)": "low polyreactivity"},
      {"sequence": "QFQLVESVGGLVQAGGSLRLSCAASGYIFRHYAMGWYRQAPGKERELVAAISGRGGSTYYADSVKGRFTISRDNAKNTVYLQMNSLKPEDTAVYYCAKDRKAVGDFYYWGQGTQVTVSS", "polyreactivity (PSR sort gate)": "high polyreactivity"},
      {"sequence": "QVQLVESGRGLVQAGGSLRLSCDASGFIFPWYAMGWYRQAPGKERELVAAITSGGSTTYADSVKGRFTISRDNAKNTVYLQMNSLKPEDTAVYYCAAAYPWGDYGVSDYDYWGQGTQVTVSS", "polyreactivity (PSR sort gate)": "high polyreactivity"},
      {"sequence": "QVQLEESGGGIVQAGGSLRLSCAASGRIFRIYAMGWYRKAPGKERELVARITYSGGSTYYADSVKGRFTISRDKAKNTVYLQMNSLKPEDTAVFYCAADWLFYQYGYWGQGTQVTVSS", "polyreactivity (PSR sort gate)": "low polyreactivity"},
      {"sequence": "QVQLVESGGGLVQAGGSLRLSSAASGRISGYNMGWYRQAPGKERELVAAISNGGSTNYADSVKGRFTISRDNAKNTVYLQMNSLKPEDTAVYYCNRRVPYSFYSRGYYYWGQGTQVTVSS", "polyreactivity (PSR sort gate)": "high polyreactivity"},
      {"sequence": "QVQLVESGGGLVQAGGSLRLRCASSGSIFHRNAMGWYRQAPGKERELVATITSNGGSTYYADSVKGRFTISRDNAKNTVFLHMNRLKPEDTAVYFCARKYRSPISALLTGDYWGQGTEVTVSS", "polyreactivity (PSR sort gate)": "low polyreactivity"},
      {"sequence": "QVQLVESGGGLVQAGGSLRLSCAASGLIFWAYAMGWYRQAPGTDRELVAAINWRGGSTYYADSVKGRFTISRDTAKNTVYLQMNSLKPEDTAVYYCAADSYYDEYDYWGQGTQVTVSS", "polyreactivity (PSR sort gate)": "low polyreactivity"},
      {"sequence": "QVQLVESGGGLVQAGGSLRLSCAASVRIFPTNAMGWYRQAPGKEREFVAAITWLGGSTYYADSVKGRFTISRDNAKNTVYLQMNRLKPEDTAVYYCAATGHIVFFRAYDYGYWGQGTQVTVSS", "polyreactivity (PSR sort gate)": "low polyreactivity"},
      {"sequence": "QVQLVESGGGLVQAGGSLRLRCATSGSIFRIYAMGWYRQAPGKERELVAAIDSGGSTNYADYVKGRFTISRDNAKNTVYFQMNCLKPEDTAVFYCNVEAWWLSYSEYDYWGQGTQVTVSS", "polyreactivity (PSR sort gate)": "high polyreactivity"},
      {"sequence": "QVQLVESGGGLVQAGGSLRLSCAASGSIFQRYTMGWYRQAPGKERELVARISGRGGSTYYADSVKGRFTISRDNAKNTVYLQMKSLKPEDTAVYYCAADTGRYLDSNYWGQGTQVTVSS", "polyreactivity (PSR sort gate)": "high polyreactivity"},
      {"sequence": "QVQLVESGGGLVQAGGSLRLSCAASGSTVEYNAMGGYRPATGKERELVAAITSGGSTTYADSVKGRFTISRDNAKNTVYLQMNSLKPEDTAVYYCAAVGRRVSAWYYYWGQGTQVTVSS", "polyreactivity (PSR sort gate)": "high polyreactivity"},
      {"sequence": "QVQLVESGGGLVQAGGSLRLSCAASGRIFFWYAMGWYRQAPGKERELVASINWSGVSTYYADSVKGRFTISRDNAKNTVYLQMNSLKPEDTAVYYCNRVRGLYWQRHGYWGQGTQVTVSS", "polyreactivity (PSR sort gate)": "high polyreactivity"},
      {"sequence": "QVQLVESGGGLVLAGGRLRLSCAASGRNFYGYAMGWYRQAPGKERELVAAISYGGGSTYYADSVKGRFTISRDNAKKTVYLQMNSLKPEDTAVYYCNDFSAYMGQYGYWGQGTQVTVSS", "polyreactivity (PSR sort gate)": "high polyreactivity"},
      {"sequence": "QVQHVESGGGLVQAGGSLRLSCAASGSIFGRYVMGRYRQAPGKESEFVAAISRSGGRTYYADSVKGRFTISRDNAKNTVYLQMNSLKPEDTAVYYCNAVGAAGPYDYWGQGTQVTVSS", "polyreactivity (PSR sort gate)": "high polyreactivity"},
      {"sequence": "QVQLVESGGGLVQAGGSLRLSCAASGSTFRGNAMGWSRQAPGKERELVAAISSSGGSTYYADSVKGRFTISRDNAKNTVYLQMNSLKPEDTAVYYCAALYHWTYDYWGQGTQVTVSS", "polyreactivity (PSR sort gate)": "low polyreactivity"}
    ]}
  ]
}
